Test results taken from publication PMC6748613.

Columns and labels:
Test in all cases: AUC
[1] = molecular target: bH1 Fab variant W^H33-W^H98-G^H99-S^L30b
[2] = molecular target: bH1 Fab variant W^H33-M^H98-D^H99-R^L30b
[3] = molecular target: bH1 Fab variant Y^H33-D^H98-G^H99-R^L30b
[4] = molecular target: bH1 Fab variant Y^H33-F^H98-G^H99-S^L30b
[5] = molecular target: bH1 Fab variant Y^H33-M^H98-G^H99-S^L30b
[6] = molecular target: bH1 Fab variant W^H33-D^H98-G^H99-S^L30b
[7] = molecular target: bH1 Fab variant W^H33-W^H98-D^H99-R^L30b
[8] = molecular target: bH1 Fab variant Y^H33-M^H98-M^H99-S^L30b
[9] = molecular target: bH1 Fab variant Y^H33-W^H98-G^H99-S^L30b

**Q.** With “bH1 Fab variant W^H33-W^H98-G^H99-S^L30b” as the substance, how does the Kd [1] read?
**A.** 2.68 mM

**Q.** And the dimer % at 1 mg/mL [1]?
**A.** 1.4%

**Q.** “bH1 Fab variant W^H33-M^H98-D^H99-R^L30b” was tested. Which Kd [2] did it give?
**A.** 3.98 mM

**Q.** With “bH1 Fab variant Y^H33-D^H98-G^H99-R^L30b” as the substance, how does the Kd [3] read?
**A.** 8.94 mM

**Q.** What does the source list for “bH1 Fab variant Y^H33-F^H98-G^H99-S^L30b”?
**A.** Kd [4]: 1.29 mM; dimer % at 1 mg/mL [4]: 1%

**Q.** With “bH1 Fab variant Y^H33-M^H98-G^H99-S^L30b” as the substance, how does the Kd [5] read?
**A.** 179 mM

**Q.** And the dimer % at 1 mg/mL [5]?
**A.** 1.4%

**Q.** Which Kd [6] does the source give for “bH1 Fab variant W^H33-D^H98-G^H99-S^L30b” here?
**A.** 1470 mM

**Q.** What about the dimer % at 1 mg/mL [6] of the same substance?
**A.** 1.2%

**Q.** For “bH1 Fab variant W^H33-W^H98-D^H99-R^L30b”, which Kd [7] is on record?
**A.** 1.33 mM

**Q.** What about the dimer % at 1 mg/mL [7] of the same substance?
**A.** 1.2%

**Q.** How did the Kd [8] turn out when “bH1 Fab variant Y^H33-M^H98-M^H99-S^L30b” was run?
**A.** 19.9 mM

**Q.** “bH1 Fab variant Y^H33-W^H98-G^H99-S^L30b” was tested. Which Kd [9] did it give?
**A.** 5.73 mM

**Q.** What about the dimer % at 1 mg/mL [9] of the same substance?
**A.** 2.8%
